Assays:
[1] = molecular target: AF647-TFIIB (TFIIB-SNAP);TBP;TFIIF;RNA polymerase II (human;human;human;human, UniProt Q00403;P20226;P35269;P13984;P24928;P30876;P19387;O15514;P19388;P61218;P62487;P52 …, |||); assay: EMSA
[2] = molecular target: TFIIB (untagged);TBP;TFIIF;RNA polymerase II (human;human;human;human, UniProt Q00403;P20226;P35269;P13984;P24928;P30876;P19387;O15514;P19388;P61218;P62487;P52 …, |||); assay: EMSA
Chain of TFIIB (untagged);TBP;TFIIF;RNA polymerase II (Q00403 whole entry, chain 1 of 2): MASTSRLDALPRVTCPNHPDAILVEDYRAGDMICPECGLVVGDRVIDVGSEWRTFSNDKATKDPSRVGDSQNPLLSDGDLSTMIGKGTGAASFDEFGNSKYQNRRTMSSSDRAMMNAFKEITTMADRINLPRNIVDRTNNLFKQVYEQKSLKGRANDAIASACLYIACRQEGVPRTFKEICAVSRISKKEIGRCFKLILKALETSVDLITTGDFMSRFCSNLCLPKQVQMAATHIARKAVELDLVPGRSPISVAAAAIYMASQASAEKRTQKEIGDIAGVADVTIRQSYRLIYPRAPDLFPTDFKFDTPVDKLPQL
Chain of TFIIB (untagged);TBP;TFIIF;RNA polymerase II (P20226 whole entry, chain 2 of 2): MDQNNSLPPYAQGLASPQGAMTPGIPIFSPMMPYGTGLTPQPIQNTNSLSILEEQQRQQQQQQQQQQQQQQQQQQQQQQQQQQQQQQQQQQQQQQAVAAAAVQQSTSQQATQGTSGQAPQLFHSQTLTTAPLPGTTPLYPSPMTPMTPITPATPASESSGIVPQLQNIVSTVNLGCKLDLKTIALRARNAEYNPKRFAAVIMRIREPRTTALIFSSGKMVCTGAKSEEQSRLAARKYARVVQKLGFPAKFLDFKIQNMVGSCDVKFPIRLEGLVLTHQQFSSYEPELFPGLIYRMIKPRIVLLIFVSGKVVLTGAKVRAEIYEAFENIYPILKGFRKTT

Chain of AF647-TFIIB (TFIIB-SNAP);TBP;TFIIF;RNA polymerase II (Q00403 whole entry, chain 1 of 2): as the sequence (Q00403 whole entry, chain 1 of 2) above
Chain of AF647-TFIIB (TFIIB-SNAP);TBP;TFIIF;RNA polymerase II (P20226 whole entry, chain 2 of 2): as the sequence (P20226 whole entry, chain 2 of 2) above

B1: three piece AdMLP DNA (-40 to +37), pre-melted bubble (dsDNA)
DNA 1: AAGGGGGGCTATAAAAGGGGGTGGGGGCGCGAAGCAGGAGTAGACTATCTTTAATCACTA
DNA 2: CCTGAGGTTAGTGTGAGTAGTGATTAAAGATAGTGATGAGGACGAACGCGCCCCCACCCCCTTTTATAGCCCCCCTT
DNA 3: CTCACACTAACCTCAGG
binding result [1]: binds | binding result [2]: binds

— article doi:10.1101/2019.12.19.882902
